Reference: article PMC13403136

Experiments:
AsCas12a [1] = target: T1, AsCas12a (UniProt U2UMQ6 1-1307); assay: BLI
AsCas12a [2] = target: T1, AsCas12a; assay: EMSA

Row | Binder | Kd (AsCas12a [1]) [nM] | binding result (AsCas12a [2])
1 | AGCACCCAGTCCGCCCTGAGTAGATGTGAATCATCTTTAAT (ssDNA) [AsCas12a GFP ΨDNA w/ biotin] | 24.5 | 
2 | AsCas12a ΨDNA + RNA target (EMSA) (DNA:RNA) DNA: AGCACCCAGTCCGCCCTGAGTAGATGTGAATCATCTTTAAT RNA: CUCAGGGCGGACUGGGUGCU |  | binds
3 | AsCas12a ΨDNA + RNA target (EMSA, FAM ΨDNA) (DNA:RNA) DNA: AGCACCCAGTCCGCCCTGAGTAGATGTGAATCATCTTTAAT RNA: CUCAGGGCGGACUGGGUGCU |  | binds
